The target in series [1] is T1, BRCA2T2 (NTD) (human, UniProt P51587 251-500).
T1 sequence: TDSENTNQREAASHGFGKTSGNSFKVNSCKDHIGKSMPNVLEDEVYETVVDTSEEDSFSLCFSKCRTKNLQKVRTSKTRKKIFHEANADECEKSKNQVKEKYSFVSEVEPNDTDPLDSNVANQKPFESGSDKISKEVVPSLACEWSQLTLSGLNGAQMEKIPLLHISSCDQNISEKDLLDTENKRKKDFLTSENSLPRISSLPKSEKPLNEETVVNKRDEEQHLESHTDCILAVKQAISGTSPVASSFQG
Put plainly: pull-down; titrated out by excess free dT40; EMSA: 25 mM Tris acetate pH 7.5, 1 mM DTT, 1 mM MgCl2, 2 mM CaCl2, 0.2 uM nucleotides DNA, 1 h at 37 C; 6% native PAGE in 1x TAE. Conditions: protein: recombinant; tags: N-terminal 2xMBP, 2 NLS; label: biotin, on streptavidin beads. In general terms: A gel shift assay detects complexes by their altered migration in electrophoresis.

Series [2] addresses T2, BRCA2T1 (human, UniProt P51587 1-250).
T2 sequence: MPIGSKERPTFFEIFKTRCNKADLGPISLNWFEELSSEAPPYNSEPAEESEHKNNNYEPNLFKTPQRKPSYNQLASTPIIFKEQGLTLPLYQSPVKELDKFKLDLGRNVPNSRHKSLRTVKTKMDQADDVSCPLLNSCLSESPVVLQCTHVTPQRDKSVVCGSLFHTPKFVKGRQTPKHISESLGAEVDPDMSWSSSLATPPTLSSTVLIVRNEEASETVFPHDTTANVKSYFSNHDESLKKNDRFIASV
The experiment in a line: pull-down; not titrated out by free dT40; EMSA: 25 mM Tris acetate pH 7.5, 1 mM DTT, 1 mM MgCl2, 2 mM CaCl2, 0.2 uM nucleotides DNA, 1 h at 37 C; 6% native PAGE in 1x TAE. To be noted: protein: recombinant; tags: N-terminal 2xMBP, 2 NLS; label: biotin, on streptavidin beads.

Series [3] has as its target T2, BRCA2T1. The experiment in a line: EMSA; up to 300 nM; EMSA: 25 mM Tris acetate pH 7.5, 1 mM DTT, 1 mM MgCl2, 2 mM CaCl2, 0.2 uM nucleotides DNA, 1 h at 37 C; 6% native PAGE in 1x TAE. Conditions: protein: recombinant; tags: N-terminal 2xMBP, 2 NLS; label: 5'-32P.
The target of series [4] is T3, BRCA2 CTD;DSS1 (human;human?, UniProt P51587;P60896 2474-3190;1-70, |). Put plainly: EMSA; EMSA: 25 mM Tris acetate pH 7.5, 1 mM DTT, 1 mM MgCl2, 2 mM CaCl2, 0.2 uM nucleotides DNA, 1 h at 37 C; 6% native PAGE in 1x TAE. Conditions: protein: recombinant;recombinant; tags: 6xHis-SUMO;; copies: 1;1; label: 5'-32P on oAC405; blunt.
The target in series [5] is T3, BRCA2 CTD;DSS1. The experiment in a line: EMSA; lower yield than BRCA2T2; EMSA: 25 mM Tris acetate pH 7.5, 1 mM DTT, 1 mM MgCl2, 2 mM CaCl2, 0.2 uM nucleotides DNA, 1 h at 37 C; 6% native PAGE in 1x TAE. Conditions: protein: recombinant;recombinant, tags: 6xHis-SUMO;, copies: 1;1.
Series [6] addresses T1, BRCA2T2 (NTD). Put plainly: EMSA; yield similar to dsDNA (~40%) at 1.5 uM; EMSA: 25 mM Tris acetate pH 7.5, 1 mM DTT, 1 mM MgCl2, 2 mM CaCl2, 0.2 uM nucleotides DNA, 1 h at 37 C; 6% native PAGE in 1x TAE. Conditions: protein: recombinant; tags: N-terminal 2xMBP, 2 NLS; label: 5'-32P.
For the next series, the target named is BRCA2 full length (human, UniProt P51587 1-3418). The experiment in a line: EMSA; ~100 times lower concentration needed than BRCA2T2; EMSA: 25 mM Tris acetate pH 7.5, 1 mM DTT, 1 mM MgCl2, 2 mM CaCl2, 0.2 uM nucleotides DNA, 1 h at 37 C; 6% native PAGE in 1x TAE. To be noted: protein: recombinant; tags: N-terminal EGFP-MBP; label: 5'-32P.
Series [7] addresses T1, BRCA2T2 (NTD). The experiment in a line: EMSA; higher yield than CTD; EMSA: 25 mM Tris acetate pH 7.5, 1 mM DTT, 1 mM MgCl2, 2 mM CaCl2, 0.2 uM nucleotides DNA, 1 h at 37 C; 6% native PAGE in 1x TAE. To be noted: protein: recombinant, tags: N-terminal 2xMBP, 2 NLS.
Series [8] addresses T1, BRCA2T2 (NTD). The experiment in a line: EMSA; EMSA: 25 mM Tris acetate pH 7.5, 1 mM DTT, 1 mM MgCl2, 2 mM CaCl2, 0.2 uM nucleotides DNA, 1 h at 37 C; 6% native PAGE in 1x TAE. Conditions: protein: recombinant; tags: N-terminal 2xMBP, 2 NLS; label: 32P; 1:2 1:3, two 42 bp duplexes with 83 nt gap.
In series [9] the target is T3, BRCA2 CTD;DSS1. Put plainly: EMSA; ~40-fold lower yield than BRCA2T2 at 1 uM; EMSA: 25 mM Tris acetate pH 7.5, 1 mM DTT, 1 mM MgCl2, 2 mM CaCl2, 0.2 uM nucleotides DNA, 1 h at 37 C; 6% native PAGE in 1x TAE. Conditions: protein: recombinant;recombinant; tags: 6xHis-SUMO;; copies: 1;1; label: 32P; 1:2 1:3, two 42 bp duplexes with 83 nt gap.

B1: dT80 biotin (ssDNA)
DNA: TTTTTTTTTTTTTTTTTTTTTTTTTTTTTTTTTTTTTTTTTTTTTTTTTTTTTTTTTTTTTTTTTTTTTTTTTTTTTTTT
modifications: 3'-biotin
In the case of B1, the binding result was “binds” with BRCA2T2 (NTD) [1] and “no binding” in the series with BRCA2T1 [2].

B2: dT40 (oAC379) (ssDNA)
DNA: TTTTTTTTTTTTTTTTTTTTTTTTTTTTTTTTTTTTTTTT
For the molecule B2, the binding result with BRCA2T1 [3] is “no binding”.

B3: 40 bp dsDNA (oAC405/oAC406) (dsDNA)
DNA 1: TAATACAAAATAAGTAAATGAATAAACAGAGAAAATAAAG
DNA 2: CTTTATTTTCTCTGTTTATTCATTTACTTATTTTGTATTA
Take B3: the binding result in the series with BRCA2 CTD;DSS1 [4] is “no binding”.

B4: 167mer ssDNA (oAC423) (ssDNA)
DNA: CTGCTTTATCAAGATAATTTTTCGACTCATCAGAAATATCCGTTTCCTATATTTATTCCTATTATGTTTTATTCATTTACTTATTCTTTATGTTCATTTTTTATATCCTTTACTTTATTTTCTCTGTTTATTCATTTACTTATTTTGTATTATCCTTATCTTATTTA
Take B4: the binding result with BRCA2 CTD;DSS1 [5] (label: 5'-32P), with BRCA2T2 (NTD) [6] and with BRCA2 full length was “binds” each time.

B5: 5' overhang (oAC423 + oAC403 as stated) (mixed)
DNA 1: CTGCTTTATCAAGATAATTTTTCGACTCATCAGAAATATCCGTTTCCTATATTTATTCCTATTATGTTTTATTCATTTACTTATTCTTTATGTTCATTTTTTATATCCTTTACTTTATTTTCTCTGTTTATTCATTTACTTATTTTGTATTATCCTTATCTTATTTA
DNA 2: CGGATATTTCTGATGAGTCGAAAAATTATCTTGATAAAGCAG
For the molecule B5, the binding result with BRCA2T2 (NTD) [7] (label: 32P) and with BRCA2 CTD;DSS1 [5] (label: 32P) was “binds” throughout.

B6: 3' overhang (oAC423 + oAC490 as stated) (mixed)
DNA 1: CTGCTTTATCAAGATAATTTTTCGACTCATCAGAAATATCCGTTTCCTATATTTATTCCTATTATGTTTTATTCATTTACTTATTCTTTATGTTCATTTTTTATATCCTTTACTTTATTTTCTCTGTTTATTCATTTACTTATTTTGTATTATCCTTATCTTATTTA
DNA 2: TAAATAAGATAAGGATAATACAAAATAAGTAAATGAATAAAC
In the case of B6, the binding result with BRCA2T2 (NTD) [7] (label: 32P on oAC490) and with BRCA2 CTD;DSS1 [5] (label: 32P on oAC490) was “binds” each time.

B7: gapped DNA (oAC423 + oAC403 + oAC490) (mixed)
DNA 1: CTGCTTTATCAAGATAATTTTTCGACTCATCAGAAATATCCGTTTCCTATATTTATTCCTATTATGTTTTATTCATTTACTTATTCTTTATGTTCATTTTTTATATCCTTTACTTTATTTTCTCTGTTTATTCATTTACTTATTTTGTATTATCCTTATCTTATTTA
DNA 2: CGGATATTTCTGATGAGTCGAAAAATTATCTTGATAAAGCAG
DNA 3: TAAATAAGATAAGGATAATACAAAATAAGTAAATGAATAAAC
For the molecule B7, the binding signal in the series with BRCA2T2 (NTD) [8] is ~40 fold higher yield than CTD at 1 uM. Also, in the series with BRCA2 CTD;DSS1 [9], the binding result is “binds”.

The record behind these values is PMC5027613, “A second DNA binding site in human BRCA2 promotes homologous recombination”.
